This note sets out measurements from the supplement of paper PMC5998384.

The subject of data set [1] is HeLa Kyoto. In words: solubility change mitosis vs G1/S (difference of NP-40 vs SDS log2 ratios) (log2 ratio difference); higher = more soluble in mitosis.
Data set [2] deals with HeLa Kyoto. In words: thermal stability score vs G1/S (z-score of summed log2 fold changes over temperatures); higher = more thermally stable than in G1/S.
The subject of data set [3] is HeLa Kyoto. In words: melting temperature (median over replicates), in situ; higher = more thermally stable.
The subject of data set [4] is HeLa Kyoto. In words: solubility in G1/S (NP-40 vs SDS abundance) (log2 ratio); higher = more soluble. To be noted: cell cycle stage: G1/S.
Setting [5] is: cell cycle stage: early G1 (4.5 h after nocodazole release).
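Throughout, for melting temperature (median over replicates), in situ: HeLa Kyoto cells synchronized by double thymidine or nocodazole block, proteins quantified by TMT10plex mass spectrometry, three independent biological replicates.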
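Throughout, for solubility change mitosis vs G1/S (difference of NP-40 vs SDS log2 ratios): synchronized HeLa Kyoto cells (double thymidine block for G1/S, nocodazole release for mitosis), protein amounts in NP-40 versus SDS lysates quantified by mass spectrometry, three biological replicates.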
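Throughout, for solubility in G1/S (NP-40 vs SDS abundance): HeLa Kyoto cells arrested at G1/S by double thymidine block, proteins quantified by TMT10plex mass spectrometry in mild NP-40 versus SDS extracts, three biological replicates.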
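Throughout, for thermal stability score vs G1/S (z-score of summed log2 fold changes over temperatures): synchronized HeLa Kyoto cells, proteins quantified by TMT10plex mass spectrometry, three biological replicates, mitosis taken 0.5 h after nocodazole release, G1/S directly after double thymidine block.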

Sequence of TIMM17B (chain, as listed by the source): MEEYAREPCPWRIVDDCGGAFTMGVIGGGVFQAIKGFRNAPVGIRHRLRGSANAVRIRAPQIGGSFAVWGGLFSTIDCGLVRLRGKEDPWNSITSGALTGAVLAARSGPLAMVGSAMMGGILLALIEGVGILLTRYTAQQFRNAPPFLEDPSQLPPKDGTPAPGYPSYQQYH
Sequence of UAP1 (chain, as listed by the source): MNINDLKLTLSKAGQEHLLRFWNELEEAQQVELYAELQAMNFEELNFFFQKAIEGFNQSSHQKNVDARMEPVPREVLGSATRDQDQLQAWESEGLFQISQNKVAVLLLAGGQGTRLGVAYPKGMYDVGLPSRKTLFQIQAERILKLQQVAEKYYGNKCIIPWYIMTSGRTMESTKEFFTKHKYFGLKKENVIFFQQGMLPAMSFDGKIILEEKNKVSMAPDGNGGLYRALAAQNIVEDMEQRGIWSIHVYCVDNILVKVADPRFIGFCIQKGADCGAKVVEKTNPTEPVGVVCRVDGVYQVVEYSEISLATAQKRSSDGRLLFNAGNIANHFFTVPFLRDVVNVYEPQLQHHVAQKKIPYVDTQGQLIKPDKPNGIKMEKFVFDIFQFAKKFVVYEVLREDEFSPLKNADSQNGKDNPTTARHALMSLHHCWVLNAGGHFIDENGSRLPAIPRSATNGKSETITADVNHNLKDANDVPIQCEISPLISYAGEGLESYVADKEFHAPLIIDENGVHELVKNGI
Sequence of STK24 (chain, as listed by the source): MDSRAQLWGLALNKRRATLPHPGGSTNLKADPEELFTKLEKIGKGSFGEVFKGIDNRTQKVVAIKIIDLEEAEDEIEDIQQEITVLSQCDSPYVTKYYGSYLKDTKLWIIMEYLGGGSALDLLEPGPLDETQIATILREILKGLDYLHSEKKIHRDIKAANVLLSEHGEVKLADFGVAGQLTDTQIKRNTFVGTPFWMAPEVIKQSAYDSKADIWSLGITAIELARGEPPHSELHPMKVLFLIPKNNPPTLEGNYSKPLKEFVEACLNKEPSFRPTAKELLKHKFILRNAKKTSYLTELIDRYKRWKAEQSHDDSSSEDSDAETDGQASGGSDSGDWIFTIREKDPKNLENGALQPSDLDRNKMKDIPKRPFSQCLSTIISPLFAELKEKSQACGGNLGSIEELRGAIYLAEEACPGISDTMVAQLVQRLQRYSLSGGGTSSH
Sequence of UTP20 (chain, as listed by the source): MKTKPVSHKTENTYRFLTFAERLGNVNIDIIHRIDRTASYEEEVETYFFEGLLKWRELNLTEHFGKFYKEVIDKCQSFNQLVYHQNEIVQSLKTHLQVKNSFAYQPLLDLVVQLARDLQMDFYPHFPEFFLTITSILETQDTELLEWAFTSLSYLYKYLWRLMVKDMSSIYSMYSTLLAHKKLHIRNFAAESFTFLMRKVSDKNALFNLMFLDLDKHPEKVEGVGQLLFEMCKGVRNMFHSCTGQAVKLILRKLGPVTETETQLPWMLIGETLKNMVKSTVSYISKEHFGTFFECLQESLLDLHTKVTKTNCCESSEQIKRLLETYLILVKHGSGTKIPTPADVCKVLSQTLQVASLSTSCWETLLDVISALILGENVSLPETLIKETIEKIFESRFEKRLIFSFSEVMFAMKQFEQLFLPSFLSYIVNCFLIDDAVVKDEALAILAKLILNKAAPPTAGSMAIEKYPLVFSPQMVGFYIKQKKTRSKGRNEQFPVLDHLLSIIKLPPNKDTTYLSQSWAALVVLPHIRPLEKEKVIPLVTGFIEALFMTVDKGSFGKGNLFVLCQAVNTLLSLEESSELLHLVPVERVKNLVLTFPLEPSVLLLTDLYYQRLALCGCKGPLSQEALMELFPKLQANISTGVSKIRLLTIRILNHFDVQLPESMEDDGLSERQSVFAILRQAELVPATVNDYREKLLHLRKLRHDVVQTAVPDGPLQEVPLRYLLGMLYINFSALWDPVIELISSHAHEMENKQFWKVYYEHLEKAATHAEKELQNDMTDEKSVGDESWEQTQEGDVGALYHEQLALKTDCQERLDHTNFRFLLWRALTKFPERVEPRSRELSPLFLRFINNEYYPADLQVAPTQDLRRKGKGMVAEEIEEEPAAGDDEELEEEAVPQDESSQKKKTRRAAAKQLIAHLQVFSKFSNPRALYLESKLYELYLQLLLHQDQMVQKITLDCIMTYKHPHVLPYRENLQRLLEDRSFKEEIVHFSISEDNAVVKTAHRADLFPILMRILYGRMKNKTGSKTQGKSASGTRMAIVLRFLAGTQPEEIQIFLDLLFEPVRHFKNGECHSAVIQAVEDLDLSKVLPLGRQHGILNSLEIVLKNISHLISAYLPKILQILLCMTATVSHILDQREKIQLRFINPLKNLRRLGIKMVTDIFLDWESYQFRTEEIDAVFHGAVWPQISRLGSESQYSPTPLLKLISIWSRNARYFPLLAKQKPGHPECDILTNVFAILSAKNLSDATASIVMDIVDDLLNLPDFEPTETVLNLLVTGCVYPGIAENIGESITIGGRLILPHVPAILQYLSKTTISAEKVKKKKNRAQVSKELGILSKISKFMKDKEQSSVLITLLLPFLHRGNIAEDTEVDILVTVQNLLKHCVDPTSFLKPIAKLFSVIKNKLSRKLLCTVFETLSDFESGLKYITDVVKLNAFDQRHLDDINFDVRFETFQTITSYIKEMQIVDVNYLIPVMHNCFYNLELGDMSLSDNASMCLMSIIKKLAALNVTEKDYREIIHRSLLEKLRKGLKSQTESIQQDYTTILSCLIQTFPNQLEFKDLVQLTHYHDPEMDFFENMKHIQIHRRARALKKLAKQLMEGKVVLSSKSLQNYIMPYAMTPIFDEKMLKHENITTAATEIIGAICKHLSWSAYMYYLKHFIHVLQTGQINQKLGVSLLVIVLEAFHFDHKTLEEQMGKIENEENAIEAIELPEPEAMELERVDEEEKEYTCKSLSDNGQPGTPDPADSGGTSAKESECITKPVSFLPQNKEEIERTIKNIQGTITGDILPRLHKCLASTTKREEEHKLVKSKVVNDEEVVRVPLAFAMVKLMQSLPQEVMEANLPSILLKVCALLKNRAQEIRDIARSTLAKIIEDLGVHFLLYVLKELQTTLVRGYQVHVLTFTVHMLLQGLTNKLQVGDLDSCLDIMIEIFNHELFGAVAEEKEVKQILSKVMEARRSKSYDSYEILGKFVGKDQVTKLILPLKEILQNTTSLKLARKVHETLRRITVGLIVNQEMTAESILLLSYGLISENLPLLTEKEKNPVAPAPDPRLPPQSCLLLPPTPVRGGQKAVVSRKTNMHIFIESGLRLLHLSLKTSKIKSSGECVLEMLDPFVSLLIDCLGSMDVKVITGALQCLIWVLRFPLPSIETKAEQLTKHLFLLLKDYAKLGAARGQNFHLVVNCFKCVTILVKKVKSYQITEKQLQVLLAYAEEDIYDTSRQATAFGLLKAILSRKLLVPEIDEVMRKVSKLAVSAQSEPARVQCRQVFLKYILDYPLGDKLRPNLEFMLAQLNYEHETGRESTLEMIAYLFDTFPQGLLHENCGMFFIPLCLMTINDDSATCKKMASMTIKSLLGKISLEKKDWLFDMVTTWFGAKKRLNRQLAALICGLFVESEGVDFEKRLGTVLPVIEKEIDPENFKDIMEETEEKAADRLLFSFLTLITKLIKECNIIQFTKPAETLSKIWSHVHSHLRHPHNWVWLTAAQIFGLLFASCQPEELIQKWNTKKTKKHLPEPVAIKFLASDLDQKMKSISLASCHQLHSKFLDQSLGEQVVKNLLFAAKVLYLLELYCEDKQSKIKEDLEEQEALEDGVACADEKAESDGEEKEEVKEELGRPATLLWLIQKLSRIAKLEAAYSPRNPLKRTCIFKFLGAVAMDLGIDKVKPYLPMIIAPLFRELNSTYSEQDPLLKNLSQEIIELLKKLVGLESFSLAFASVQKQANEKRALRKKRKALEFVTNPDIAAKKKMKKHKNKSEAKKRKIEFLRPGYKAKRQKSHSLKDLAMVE
Sequence of STK26 (chain, as listed by the source): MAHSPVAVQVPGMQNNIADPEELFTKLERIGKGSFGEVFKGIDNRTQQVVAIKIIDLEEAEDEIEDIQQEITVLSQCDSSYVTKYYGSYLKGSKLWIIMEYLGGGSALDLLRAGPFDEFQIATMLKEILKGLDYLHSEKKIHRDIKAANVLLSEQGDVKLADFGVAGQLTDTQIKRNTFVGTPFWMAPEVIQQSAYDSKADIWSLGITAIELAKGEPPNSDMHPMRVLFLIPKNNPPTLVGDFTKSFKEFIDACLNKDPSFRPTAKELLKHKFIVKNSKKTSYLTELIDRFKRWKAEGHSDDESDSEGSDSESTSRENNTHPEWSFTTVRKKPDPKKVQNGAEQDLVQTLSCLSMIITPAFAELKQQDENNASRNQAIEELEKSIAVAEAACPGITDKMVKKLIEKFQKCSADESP

On to STK24, for which the “solubility change mitosis (log2)” value with HeLa Kyoto [1] is -0.0565. The thermal stability score came to 4.29 with HeLa Kyoto [2] (setting [5]) and 2.12 in the data set on HeLa Kyoto [2] (cell cycle stage: mitosis). Further, the melting temperature in the data set on HeLa Kyoto [3] (cell cycle stage: G1/S) was found to be 51.7 °C; in the data set on HeLa Kyoto [3] (cell cycle stage: mitosis) it was 52.3 °C. For the same substance, in the data set with HeLa Kyoto [4], the “solubility in G1/S (log2)” value turned out to be 0.479.
For STK26, the “solubility change mitosis (log2)” value in the data set on HeLa Kyoto [1] was -0.0994. Also, the thermal stability score turned out to be 1.96 in the data set on HeLa Kyoto [2] (setting [5]) and 2.98 in the data set on HeLa Kyoto [2] (cell cycle stage: mitosis). Besides, the values for the melting temperature in the data set on HeLa Kyoto [3] (cell cycle stage: G1/S) and in the data set on HeLa Kyoto [3] (cell cycle stage: mitosis) were 49.1 °C and 49.8 °C, respectively. Further, in the data set on HeLa Kyoto [4], the “solubility in G1/S (log2)” value came to 0.393.
As to TACC2, the “solubility change mitosis (log2)” value in the data set on HeLa Kyoto [1] was -0.0921. The results for the thermal stability score in the data set with HeLa Kyoto [2] (setting [5]) and in the data set on HeLa Kyoto [2] (cell cycle stage: mitosis) were -1.3 and 1.83, respectively. The melting temperature in the data set with HeLa Kyoto [3] (cell cycle stage: G1/S) came out at 54.3 °C; with HeLa Kyoto [3] (cell cycle stage: mitosis), 53.8 °C. Also, in the data set with HeLa Kyoto [4], the “solubility in G1/S (log2)” value came out at 0.219.
Regarding TANC2, the “solubility change mitosis (log2)” value with HeLa Kyoto [1] was -0.0218. For the same substance, the thermal stability score in the data set with HeLa Kyoto [2] (setting [5]) was determined as 0.0704; with HeLa Kyoto [2] (cell cycle stage: mitosis), 0.122. In the data set with HeLa Kyoto [3] (cell cycle stage: mitosis), this substance had a melting temperature of 50.3 °C. The “solubility in G1/S (log2)” value with HeLa Kyoto [4] was determined as 0.222.
In the case of TATDN1, the “solubility change mitosis (log2)” value with HeLa Kyoto [1] was -0.119. Moreover, the thermal stability score was -1.11 in the data set with HeLa Kyoto [2] (setting [5]) and -2.1 in the data set with HeLa Kyoto [2] (cell cycle stage: mitosis). Further, the melting temperature amounted to 56.1 °C in the data set on HeLa Kyoto [3] (cell cycle stage: G1/S) and 56.4 °C with HeLa Kyoto [3] (cell cycle stage: mitosis). In the data set with HeLa Kyoto [4], the “solubility in G1/S (log2)” value came out at 0.194.
Consider TCF20, for which the “solubility change mitosis (log2)” value in the data set on HeLa Kyoto [1] was 0.527. The thermal stability score with HeLa Kyoto [2] (setting [5]) was found to be 0.72; in the data set on HeLa Kyoto [2] (cell cycle stage: mitosis) it was 1.03. The substance further registered a melting temperature in the data set on HeLa Kyoto [3] (cell cycle stage: mitosis) of 51.1 °C. Moreover, in the data set on HeLa Kyoto [4], the “solubility in G1/S (log2)” value is -0.513.
Turning to TIMM17B, the “solubility change mitosis (log2)” value in the data set with HeLa Kyoto [1] was 0.0028. Besides, the figures for the thermal stability score in the data set with HeLa Kyoto [2] (setting [5]) and in the data set on HeLa Kyoto [2] (cell cycle stage: mitosis) were -0.611 and -0.727, respectively. Moreover, the values for the melting temperature in the data set with HeLa Kyoto [3] (cell cycle stage: G1/S) and in the data set on HeLa Kyoto [3] (cell cycle stage: mitosis) were 54.9 °C and 57.2 °C, respectively. Moreover, the “solubility in G1/S (log2)” value with HeLa Kyoto [4] amounted to 0.308.
For TJP1, the “solubility change mitosis (log2)” value in the data set on HeLa Kyoto [1] was 0.126. The thermal stability score was -0.423 with HeLa Kyoto [2] (setting [5]) and 1.4 with HeLa Kyoto [2] (cell cycle stage: mitosis). The results for the melting temperature in the data set on HeLa Kyoto [3] (cell cycle stage: G1/S) and in the data set on HeLa Kyoto [3] (cell cycle stage: mitosis) were 49.3 °C and 50.3 °C, respectively. The “solubility in G1/S (log2)” value with HeLa Kyoto [4] is -0.366.
Consider TLK2, for which, in the data set on HeLa Kyoto [1], the “solubility change mitosis (log2)” value was -0.141. Further, the thermal stability score in the data set with HeLa Kyoto [2] (setting [5]) is 1.27; in the data set with HeLa Kyoto [2] (cell cycle stage: mitosis), 1.41. Moreover, the melting temperature with HeLa Kyoto [3] (cell cycle stage: G1/S) was determined as 50.9 °C; with HeLa Kyoto [3] (cell cycle stage: mitosis), 52.2 °C. For the same substance, the “solubility in G1/S (log2)” value with HeLa Kyoto [4] is -0.0304.
For TLN2, the “solubility change mitosis (log2)” value in the data set on HeLa Kyoto [1] was 0.0273. Moreover, the thermal stability score in the data set with HeLa Kyoto [2] (setting [5]) was -0.491; in the data set with HeLa Kyoto [2] (cell cycle stage: mitosis), -0.643. The melting temperature with HeLa Kyoto [3] (cell cycle stage: G1/S) is 50.5 °C; in the data set on HeLa Kyoto [3] (cell cycle stage: mitosis), 50.4 °C. For the same substance, in the data set on HeLa Kyoto [4], the “solubility in G1/S (log2)” value is -0.145.
Consider TOP2B, for which the “solubility change mitosis (log2)” value in the data set with HeLa Kyoto [1] was found to be 0.675. Moreover, the figures for the thermal stability score with HeLa Kyoto [2] (setting [5]) and in the data set on HeLa Kyoto [2] (cell cycle stage: mitosis) were 0.414 and 1.45, respectively. Besides, the melting temperature came to 52.2 °C with HeLa Kyoto [3] (cell cycle stage: G1/S) and 51.6 °C with HeLa Kyoto [3] (cell cycle stage: mitosis). The “solubility in G1/S (log2)” value in the data set with HeLa Kyoto [4] is -2.12.
On to TPM4, for which the “solubility change mitosis (log2)” value in the data set on HeLa Kyoto [1] came out at 0.532. Also, the thermal stability score is -0.98 with HeLa Kyoto [2] (setting [5]) and -3.48 in the data set on HeLa Kyoto [2] (cell cycle stage: mitosis). For the same substance, in the data set with HeLa Kyoto [3] (cell cycle stage: G1/S), the melting temperature is 55.8 °C. The “solubility in G1/S (log2)” value in the data set with HeLa Kyoto [4] came out at 0.907.
As for TRIOBP, the “solubility change mitosis (log2)” value with HeLa Kyoto [1] came to 0.0573. For the same substance, the values for the thermal stability score in the data set with HeLa Kyoto [2] (setting [5]) and with HeLa Kyoto [2] (cell cycle stage: mitosis) were 0.418 and 1.17, respectively. In addition, the melting temperature in the data set with HeLa Kyoto [3] (cell cycle stage: G1/S) worked out at 49.1 °C; in the data set on HeLa Kyoto [3] (cell cycle stage: mitosis), 49.3 °C. Moreover, in the data set on HeLa Kyoto [4], the “solubility in G1/S (log2)” value was determined as 0.139.
On to TRIP12, for which the “solubility change mitosis (log2)” value in the data set on HeLa Kyoto [1] worked out at 0.333. Moreover, the figures for the thermal stability score in the data set on HeLa Kyoto [2] (setting [5]) and in the data set with HeLa Kyoto [2] (cell cycle stage: mitosis) were -0.291 and 0.532, respectively. The results for the melting temperature with HeLa Kyoto [3] (cell cycle stage: G1/S) and in the data set with HeLa Kyoto [3] (cell cycle stage: mitosis) were 48.4 °C and 48.7 °C, respectively. Besides, the “solubility in G1/S (log2)” value in the data set on HeLa Kyoto [4] is -0.461.
With UAP1, the “solubility change mitosis (log2)” value with HeLa Kyoto [1] was -0.119. Moreover, the thermal stability score in the data set with HeLa Kyoto [2] (setting [5]) was 0.837; in the data set with HeLa Kyoto [2] (cell cycle stage: mitosis), 1.62. Also, the figures for the melting temperature in the data set on HeLa Kyoto [3] (cell cycle stage: G1/S) and in the data set with HeLa Kyoto [3] (cell cycle stage: mitosis) were 53.2 °C and 53.3 °C, respectively. The “solubility in G1/S (log2)” value in the data set with HeLa Kyoto [4] came to 0.216.
Regarding URB1, in the data set with HeLa Kyoto [1], the “solubility change mitosis (log2)” value is 0.746. The thermal stability score with HeLa Kyoto [2] (setting [5]) stood at 0.229; in the data set on HeLa Kyoto [2] (cell cycle stage: mitosis), 0.403. In the data set with HeLa Kyoto [3] (cell cycle stage: mitosis), this substance had a melting temperature of 50.5 °C. For the same substance, the “solubility in G1/S (log2)” value in the data set on HeLa Kyoto [4] was -1.55.
Regarding USP24, the “solubility change mitosis (log2)” value with HeLa Kyoto [1] is -0.155. For the same substance, the thermal stability score was 0.0834 with HeLa Kyoto [2] (setting [5]) and -0.634 in the data set with HeLa Kyoto [2] (cell cycle stage: mitosis). For the same substance, the results for the melting temperature with HeLa Kyoto [3] (cell cycle stage: G1/S) and with HeLa Kyoto [3] (cell cycle stage: mitosis) were 51.4 °C and 50.5 °C, respectively. The “solubility in G1/S (log2)” value with HeLa Kyoto [4] is -0.205.
UTP20: the “solubility change mitosis (log2)” value with HeLa Kyoto [1] amounted to 0.363. Also, the thermal stability score amounted to 1.17 in the data set with HeLa Kyoto [2] (setting [5]) and 5.97 with HeLa Kyoto [2] (cell cycle stage: mitosis). The melting temperature in the data set on HeLa Kyoto [3] (cell cycle stage: G1/S) was 47.3 °C; in the data set on HeLa Kyoto [3] (cell cycle stage: mitosis), 50.7 °C. Moreover, the “solubility in G1/S (log2)” value in the data set with HeLa Kyoto [4] was -1.01.
Turning to VLDLR, the “solubility change mitosis (log2)” value in the data set on HeLa Kyoto [1] was -0.0963. Also, the thermal stability score is -2.48 in the data set with HeLa Kyoto [2] (setting [5]) and -3.74 in the data set with HeLa Kyoto [2] (cell cycle stage: mitosis). The results for the melting temperature in the data set on HeLa Kyoto [3] (cell cycle stage: G1/S) and with HeLa Kyoto [3] (cell cycle stage: mitosis) were 56.4 °C and 55.4 °C, respectively. The “solubility in G1/S (log2)” value in the data set with HeLa Kyoto [4] is -0.0421.
For VPS13C, the “solubility change mitosis (log2)” value with HeLa Kyoto [1] was -0.127. The thermal stability score in the data set with HeLa Kyoto [2] (setting [5]) is -0.0535; in the data set with HeLa Kyoto [2] (cell cycle stage: mitosis) it was -0.882. Also, the melting temperature with HeLa Kyoto [3] (cell cycle stage: G1/S) was determined as 52.7 °C; with HeLa Kyoto [3] (cell cycle stage: mitosis), 53.1 °C. Further, the “solubility in G1/S (log2)” value in the data set on HeLa Kyoto [4] was -0.229.
WDR45B: the “solubility change mitosis (log2)” value with HeLa Kyoto [1] is -0.118. In addition, the thermal stability score in the data set on HeLa Kyoto [2] (setting [5]) was 0.71; in the data set with HeLa Kyoto [2] (cell cycle stage: mitosis), -1.09. In addition, the melting temperature in the data set on HeLa Kyoto [3] (cell cycle stage: G1/S) worked out at 54.5 °C; in the data set with HeLa Kyoto [3] (cell cycle stage: mitosis), 57.4 °C. The “solubility in G1/S (log2)” value in the data set on HeLa Kyoto [4] was found to be 0.0796.
In the case of ZZEF1, in the data set on HeLa Kyoto [1], the “solubility change mitosis (log2)” value was -0.0476. Moreover, the values for the thermal stability score with HeLa Kyoto [2] (setting [5]) and in the data set on HeLa Kyoto [2] (cell cycle stage: mitosis) were 0.459 and 0.456, respectively. For the same substance, the melting temperature in the data set on HeLa Kyoto [3] (cell cycle stage: G1/S) is 51.8 °C; in the data set on HeLa Kyoto [3] (cell cycle stage: mitosis), 51.5 °C. The “solubility in G1/S (log2)” value in the data set with HeLa Kyoto [4] is -0.243.
